Assay results reported in patent US6893870 (Human Genome Sciences, dated 2005).

Target: tissue plasminogen activator (UniProt P00750 36-562, limits assumed)
Assay: cell-based or functional assay

tissue plasminogen activator, sequence (P00750 36-562 limits assumed): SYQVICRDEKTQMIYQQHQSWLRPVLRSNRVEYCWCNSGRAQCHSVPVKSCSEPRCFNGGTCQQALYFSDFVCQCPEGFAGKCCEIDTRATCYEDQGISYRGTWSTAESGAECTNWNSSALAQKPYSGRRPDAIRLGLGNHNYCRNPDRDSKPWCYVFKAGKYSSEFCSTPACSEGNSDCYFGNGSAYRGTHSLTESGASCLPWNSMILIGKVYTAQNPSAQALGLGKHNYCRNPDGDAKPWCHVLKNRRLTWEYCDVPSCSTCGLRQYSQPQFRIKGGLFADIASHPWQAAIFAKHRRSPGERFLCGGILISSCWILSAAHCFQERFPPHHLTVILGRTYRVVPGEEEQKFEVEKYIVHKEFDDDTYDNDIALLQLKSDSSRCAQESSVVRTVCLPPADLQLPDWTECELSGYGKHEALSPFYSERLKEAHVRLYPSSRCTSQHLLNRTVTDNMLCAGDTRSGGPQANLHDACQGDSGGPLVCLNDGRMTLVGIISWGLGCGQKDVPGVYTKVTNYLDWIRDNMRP

anti-tPA activity (plasminogen activator inhibitory activity) of concentrated conditioned media: 3 fold over PAPAI negative clones
B1: pancreas-derived plasminogen activator inhibitor (PAPAI) protein (other)
chain: SRCSAQKNTEFAVDLYQEVSLSHKDNIIFSPLGITLVLEMVQLGAKGKAQQQIRQTLKQQETSAGEEFLVLKSFCSAISEKKQEFTFNLANALYLQEGFTVKEQYLHGNKEFFQSAIKLVDFQDAKACAEMISTWVERKTDGKIKDMFSGEEFGPLTRLVLVNAIYFKGDWKQKFRKEDTQLINFTKKNGSTVKIPMMKALLRTKYGYFSESSLNYQVLELSYKGDEFSLIIILPAEGMDIEEVEKLITAQQILKWLSEMQEEEVEISLPRFKVEQKVDFKDVLYSLNITEIFSGGCDLSGITDSSEVYVSQVTQKVFFEINEDGSEAATSTGIHIPVIMSLAQSQFIANHPFLFIMKHNPTESILFMGRVTNPDTQEIKGRDLDSL
